Assay results: patent US20230074436A1 (DENALI THERAPEUTICS, published 2023)
No end group written: not given here. *: point of attachment. Biotin = O=C1N[C@H]2[C@H](CS[C@H]2CCCCC(=O)*)N1

Key:
[1] = biological target: human alpha-synuclein monomer (human, UniProt P37840 1-140); experiment: ELISA, coated human alpha-synuclein
[2] = biological target: T1, asyn_113-127_122A (human); experiment: Ala-scan peptide ELISA, row C, run 1
T1 construct: substitution is already in the entry; also called pep11
T1 peptide: Biotin-LEDMPVDPDAEAYEM
Procedure: (§1) 96-well Nunc plates were coated with 50 μL per well of 1 μg/mL streptavidin (from Jackson Immuno Research Laboratory) in PBS at 4° C. overnight. The plates were washed three times with PBST, and blocked with PBS containing 3% BSA at room temperature for 1 hour. The N-terminal biotinylated peptides were dissolved in Milli Q water to a concentration of 2 mg/mL, then further diluted to a concentration of 2 μg/mL with PBS. 50 μl of the diluted peptide was applied to the streptavidin-coated plates and incubated at 4° C. overnight. 2 μg/mL of biotinylated human alpha-synuclein was used as the positive control. The plates were washed three times with PBST before use. Purified antibody was diluted by serial dilution methods, from 20 μg/mL to 1 ng/mL, and 50 μL of the antibody solution was added to the peptide-coated wells. The plates were incubated for 1 hour at room temperature, then washed three times with PBST. Secondary detection antibody (goat anti-rat HRP (obtained from Southern Biotech)) was added with 1:5,000 dilutions and incubated for 1 hour at room temperature, then washed three times with PBST. Plates were developed with 50 μL/well of TMB substrate (Thermo Fisher) and quenched with 50 μL/well of 1 N sulfuric acid. The signal was quantified on a BioTek® plate reader at A450. A parallel repeat was performed for each peptide in a separate plate.

[3] = biological target: T2, asyn_113-127_123A (human); experiment: Ala-scan peptide ELISA, row C, run 1
T2 construct: substitution is already in the entry; also called pep12
T2 peptide: Biotin-LEDMPVDPDNAAYEM
Procedure: as §1

[4] = biological target: T3, asyn_113-127_124G (human); experiment: Ala-scan peptide ELISA, row C, run 1
T3 construct: substitution is already in the entry; also called pep13
T3 peptide: Biotin-LEDMPVDPDNEGYEM
Procedure: as §1

[5] = biological target: T4, asyn_113-127_125A (human); experiment: Ala-scan peptide ELISA, row C, run 1
T4 construct: substitution is already in the entry; also called pep15
T4 peptide: Biotin-LEDMPVDPDNEAAEM
Procedure: as §1

[6] = biological target: T5, asyn_113-127_127A (human); experiment: Ala-scan peptide ELISA, row C, run 1
T5 construct: substitution is already in the entry; also called pep17
T5 peptide: Biotin-LEDMPVDPDNEAYEA
Procedure: as §1

[7] = biological target: T6, biotinylated human alpha-synuclein (human, UniProt P37840 1-140); experiment: Ala-scan peptide ELISA, row C, run 1
Procedure: as §1

[8] = biological target: T7, asyn_113-127 (human); experiment: Ala-scan peptide ELISA, row E, run 1
T7 construct: also called pep1
T7 peptide: Biotin-LEDMPVDPDNEAYEM
Procedure: as §1

[9] = biological target: T8, asyn_113-127_113A (human); experiment: Ala-scan peptide ELISA, row E, run 1
T8 construct: substitution is already in the entry; also called pep2
T8 peptide: Biotin-AEDMPVDPDNEAYEM
Procedure: as §1

[10] = biological target: T9, asyn_113-127_114A (human); experiment: Ala-scan peptide ELISA, row E, run 1
T9 construct: substitution is already in the entry; also called pep3
T9 peptide: Biotin-LADMPVDPDNEAYEM
Procedure: as §1

[11] = biological target: T10, asyn_113-127_115A (human); experiment: Ala-scan peptide ELISA, row E, run 1
T10 construct: substitution is already in the entry; also called pep4
T10 peptide: Biotin-LEAMPVDPDNEAYEM
Procedure: as §1

[12] = biological target: T11, asyn_113-127_116A (human); experiment: Ala-scan peptide ELISA, row E, run 1
T11 construct: substitution is already in the entry; also called pep5
T11 peptide: Biotin-LEDAPVDPDNEAYEM
Procedure: as §1

[13] = biological target: T12, asyn_113-127_117A (human); experiment: Ala-scan peptide ELISA, row E, run 1
T12 construct: substitution is already in the entry; also called pep6
T12 peptide: Biotin-LEDMAVDPDNEAYEM
Procedure: as §1

[14] = biological target: T13, asyn_113-127_118A (human); experiment: Ala-scan peptide ELISA, row E, run 1
T13 construct: substitution is already in the entry; also called pep7
T13 peptide: Biotin-LEDMPADPDNEAYEM
Procedure: as §1

[15] = biological target: T14, asyn_113-127_119A (human); experiment: Ala-scan peptide ELISA, row E, run 1
T14 construct: substitution is already in the entry; also called pep8
T14 peptide: Biotin-LEDMPVAPDNEAYEM
Procedure: as §1

[16] = biological target: T15, asyn_113-127_120A (human); experiment: Ala-scan peptide ELISA, row E, run 1
T15 construct: substitution is already in the entry; also called pep9
T15 peptide: Biotin-LEDMPVDADNEAYEM
Procedure: as §1

[17] = biological target: T16, asyn_113-127_121A (human); experiment: Ala-scan peptide ELISA, row E, run 1
T16 construct: substitution is already in the entry; also called pep10
T16 peptide: Biotin-LEDMPVDPANEAYEM
Procedure: as §1

[18] = biological target: T1, asyn_113-127_122A; experiment: Ala-scan peptide ELISA, row E, run 1
Procedure: as §1

[19] = biological target: T2, asyn_113-127_123A; experiment: Ala-scan peptide ELISA, row E, run 1
Procedure: as §1

[20] = biological target: T3, asyn_113-127_124G; experiment: Ala-scan peptide ELISA, row E, run 1
Procedure: as §1

[21] = biological target: T17, asyn_113-127_124P (human); experiment: Ala-scan peptide ELISA, row E, run 1
T17 construct: substitution is already in the entry; also called pep14
T17 peptide: Biotin-LEDMPVDPDNEPYEM
Procedure: as §1

[22] = biological target: T4, asyn_113-127_125A; experiment: Ala-scan peptide ELISA, row E, run 1
Procedure: as §1

[23] = biological target: T18, asyn_113-127_126A (human); experiment: Ala-scan peptide ELISA, row E, run 1
T18 construct: substitution is already in the entry; also called pep16
T18 peptide: Biotin-LEDMPVDPDNEAYAM
Procedure: as §1

[24] = biological target: T5, asyn_113-127_127A; experiment: Ala-scan peptide ELISA, row E, run 1
Procedure: as §1

[25] = biological target: T6, biotinylated human alpha-synuclein; experiment: Ala-scan peptide ELISA, row E, run 1
Procedure: as §1

[26] = biological target: T7, asyn_113-127; experiment: Ala-scan peptide ELISA, row H, run 2
Procedure: as §1

[27] = biological target: T8, asyn_113-127_113A; experiment: Ala-scan peptide ELISA, row H, run 2
Procedure: as §1

[28] = biological target: T10, asyn_113-127_115A; experiment: Ala-scan peptide ELISA, row H, run 2
Procedure: as §1

[29] = biological target: T12, asyn_113-127_117A; experiment: Ala-scan peptide ELISA, row H, run 2
Procedure: as §1

[30] = biological target: T16, asyn_113-127_121A; experiment: Ala-scan peptide ELISA, row H, run 2
Procedure: as §1

[31] = biological target: T1, asyn_113-127_122A; experiment: Ala-scan peptide ELISA, row H, run 2
Procedure: as §1

[32] = biological target: T3, asyn_113-127_124G; experiment: Ala-scan peptide ELISA, row H, run 2
Procedure: as §1

[33] = biological target: T5, asyn_113-127_127A; experiment: Ala-scan peptide ELISA, row H, run 2
Procedure: as §1

[34] = biological target: T6, biotinylated human alpha-synuclein; experiment: Ala-scan peptide ELISA, row H, run 2
Procedure: as §1

[35] = biological target: mouse alpha-synuclein (mouse, UniProt O55042 1-140); experiment: direct ELISA on coated antigen; Table 6 titration ELISA, mouse aSyn; Bmax 0.1 (weak binding)
Procedure: 96-well Nunc plates were coated with 50 μL of recombinant human, mouse, or rat alpha-synuclein at a concentration of 1 μg/mL in PBS at 4° C. overnight. The plates were then washed three times with PBST and blocked with PBS containing 3% BSA at room temperature for 1 hour. Purified antibody was diluted by serial dilution methods, from 10 μg/mL to 0.6 ng/mL, and 50 μL of the antibody solution was added to the alpha-synuclein-coated wells. The plates were incubated for 1 hour at room temperature, then washed three times with PBST. Secondary detection antibody (goat anti-rat HRP (obtained from Southern Biotech)) was added 50 μL/well, 1:5,000 diluted in BSA-PBS solution. Plates were incubated for 1 hour at room temperature, then washed three times with PBST. Plates were subsequently developed with 50 μL/well of TMB substrate (Thermo Fisher) and quenched with 50 μL/well of 1 N sulfuric acid. The signal was quantified on a BioTek® plate reader at A450.

B1: 20H4 (antibody, rat IgG2b, V domains shown)
VH: AVQLVESGGGLVQPKESLKISCAASGFTFSNAAMYWVRQAPGKGLELLARIRTKPNNYATYHADSVKGRFTISRDDSQSMVYLHMGNLKTEDTAMYYCTADMATGDYWGPGVMVTVSS
VL: DIQMTQSPPVLSVSVGDRVTLSCKASQNINKNLDWYQQKHGEAPKPLIYSTNNLQTGVPSRFSGSGSGTDYTLTISSLQPEDVATYYCYQYKSAWTFGGGTKLELR
notes: also called clone 20H4; rat 20H4
For B1, the “antibody concentration at which ELISA is positive” value [1] was under 40 ng/mL, the A450 [2] was 0.052 OD and the A450 [3] was 0.476 OD. It also gave an A450 [4] of 0.34 OD, an A450 [5] of 0.049 OD and an A450 [6] of 0.379 OD. It also gave an A450 [7] of 0.588 OD, an A450 [8] of 0.297 OD and an A450 [9] of 0.302 OD. It also gave an A450 [10] of 0.273 OD, an A450 [11] of 0.183 OD and an A450 [12] of 0.296 OD. It also gave an A450 [13] of 0.304 OD, an A450 [14] of 0.324 OD and an A450 [15] of 0.05 OD. The A450 [16] was 0.2 OD, the A450 [17] was 0.249 OD and the A450 [18] was 0.051 OD. For the same binder, the A450 [19] was 0.282 OD, the A450 [20] was 0.214 OD and the A450 [21] was 0.044 OD. The A450 [22] was 0.045 OD, the A450 [23] was 0.235 OD and the A450 [24] was 0.248 OD. The A450 [25] was 0.383 OD, the A450 [26] was 0.064 OD and the A450 [27] was 0.066 OD. For the same binder, the A450 [28] was 0.052 OD, the A450 [29] was 0.083 OD and the A450 [30] was 0.069 OD. The A450 [31] was 0.051 OD, the A450 [32] was 0.066 OD and the A450 [33] was 0.066 OD. It also gave an A450 [34] of 0.087 OD and an EC50 [35] of 4.3 nM.
